{"source": "paper PMC4650695", "key": {"[1]": {"target": "ICP27Δ241 (HSV-1 ICP27 C-terminal residues 241-512) (Herpes simplex virus 1 (HSV-1)) (UniProt P10238)", "experiment": "AUC; sedimentation velocity, 1 mg/mL in 20 mM HEPES pH 7.4, 150 mM NaCl, 40000 RPM, 20 °C"}, "[2]": {"target": "ICP27Δ241 (HSV-1 ICP27 C-terminal residues 241-512) (Herpes simplex virus 1 (HSV-1)) (UniProt P10238)", "experiment": "SEC-MALS; 0.5 mL at 1 mg/mL on Superdex 200 10/300GL, 0.75 mL/min in gel filtration buffer (20 mM Tris, 150 mM NaCl, 50 mM L-Arg, 50 mM L-Glu, 50 mM L-Pro, 0.1 mM TCEP, 10 μM ZnCl2, pH 8.5)"}, "[3]": {"target": "ICP27Δ215 (HSV-1 ICP27 residues 215-512) (Herpes simplex virus 1 (HSV-1)) (UniProt P10238)", "experiment": "AUC; sedimentation velocity, 1 mg/mL in 20 mM HEPES pH 7.4, 150 mM NaCl, 40000 RPM, 20 °C"}, "[4]": {"target": "ICP27Δ215 (HSV-1 ICP27 residues 215-512) (Herpes simplex virus 1 (HSV-1)) (UniProt P10238)", "experiment": "SEC-MALS; 0.5 mL at 1 mg/mL on Superdex 200 10/300GL, 0.75 mL/min in gel filtration buffer (20 mM Tris, 150 mM NaCl, 50 mM L-Arg, 50 mM L-Glu, 50 mM L-Pro, 0.1 mM TCEP, 10 μM ZnCl2, pH 8.5)"}, "[5]": {"target": "ICP27Δ189 (HSV-1 ICP27 residues 189-512) (Herpes simplex virus 1 (HSV-1)) (UniProt P10238)", "experiment": "AUC; sedimentation velocity, 1 mg/mL in 20 mM HEPES pH 7.4, 150 mM NaCl, 40000 RPM, 20 °C"}, "[6]": {"target": "ICP27Δ189 (HSV-1 ICP27 residues 189-512) (Herpes simplex virus 1 (HSV-1)) (UniProt P10238)", "experiment": "SEC-MALS; 0.5 mL at 1 mg/mL on Superdex 200 10/300GL, 0.75 mL/min in gel filtration buffer (20 mM Tris, 150 mM NaCl, 50 mM L-Arg, 50 mM L-Glu, 50 mM L-Pro, 0.1 mM TCEP, 10 μM ZnCl2, pH 8.5)"}}}
{"substance": "ICP27Δ241 (HSV-1 ICP27 C-terminal residues 241-512) (from UniProt P10238 241-512) (domain or fragment)", "values": [{"measurement": "stoichiometry N", "setting": "[1]", "value": 2}, {"measurement": "stoichiometry N", "setting": "[2]", "value": 2}]}
{"substance": "ICP27Δ215 (HSV-1 ICP27 residues 215-512) (from UniProt P10238 215-512) (domain or fragment)", "values": [{"measurement": "stoichiometry N", "setting": "[3]", "value": 2}, {"measurement": "stoichiometry N", "setting": "[4]", "value": 2}]}
{"substance": "ICP27Δ189 (HSV-1 ICP27 residues 189-512) (from UniProt P10238 189-512) (domain or fragment)", "values": [{"measurement": "stoichiometry N", "setting": "[5]", "value": 2}, {"measurement": "stoichiometry N", "setting": "[6]", "value": 2}]}
